Among the data in PMC9536298 are co-IP level with SMN in SMA cells, % of normal cells and co-IP level with ZPR1 in SMA cells, % of normal cells values, retold here.

Assay [1] deals with survival motor neuron protein (SMN), endogenous human (human (endogenous in human fibroblasts)) (UniProt Q16637). Briefly: co-IP.
Assay [2] deals with zinc finger protein ZPR1, endogenous human (human (endogenous in HeLa and human fibroblasts)) (UniProt O75312). Briefly: co-IP.
zinc finger protein ZPR1, endogenous human (human (endogenous in HeLa and human fibroblasts)), sequence (O75312 whole entry): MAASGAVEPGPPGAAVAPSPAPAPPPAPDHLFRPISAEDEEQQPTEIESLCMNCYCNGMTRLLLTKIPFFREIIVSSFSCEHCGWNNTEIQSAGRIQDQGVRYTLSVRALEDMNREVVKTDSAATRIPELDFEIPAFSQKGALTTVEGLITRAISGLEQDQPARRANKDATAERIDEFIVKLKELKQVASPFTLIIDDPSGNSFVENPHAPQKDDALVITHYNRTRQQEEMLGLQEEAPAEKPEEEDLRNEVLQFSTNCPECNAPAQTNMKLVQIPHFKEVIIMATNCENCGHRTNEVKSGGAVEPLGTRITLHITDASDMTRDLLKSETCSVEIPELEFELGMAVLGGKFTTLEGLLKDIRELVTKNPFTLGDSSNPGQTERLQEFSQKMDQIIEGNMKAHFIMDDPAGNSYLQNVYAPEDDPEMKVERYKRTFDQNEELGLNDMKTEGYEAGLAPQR

survival motor neuron protein (SMN), endogenous human (human (endogenous in human fibroblasts)), sequence (Q16637 whole entry): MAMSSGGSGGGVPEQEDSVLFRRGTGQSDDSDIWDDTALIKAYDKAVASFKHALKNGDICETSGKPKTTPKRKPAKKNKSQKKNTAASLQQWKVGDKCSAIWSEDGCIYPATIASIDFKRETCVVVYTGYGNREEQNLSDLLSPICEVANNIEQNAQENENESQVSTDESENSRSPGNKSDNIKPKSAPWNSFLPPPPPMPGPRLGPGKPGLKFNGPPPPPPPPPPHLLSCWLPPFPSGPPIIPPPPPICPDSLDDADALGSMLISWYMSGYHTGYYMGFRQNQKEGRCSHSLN

In assay [1], “senataxin (SETX), endogenous human, Q7Z333 1-2677” registered a co-IP level with SMN in SMA cells, % of normal cells of 25.8%. The substance also showed a co-IP level with ZPR1 in SMA cells, % of normal cells in assay [2] of 44.8%.
